Source: publication PMC6046605
pKd: −log10 of the molar value. Where “and” joins values, the source holds several entries; their conditions need not be identical. Equal entries are not always repeated.

How the values were obtained:
[1] = target: murine norovirus (MNV) RNA-dependent RNA polymerase (RdRp), native (murine norovirus (MNV)); experiment: SPR; data not shown; immobilised RdRp; Biacore2000, 1:1 Langmuir kinetics
[2] = target: murine norovirus (MNV) RNA-dependent RNA polymerase (RdRp), native (murine norovirus (MNV)); experiment: negative-stain electron microscopy; RdRp alone, 1-6 μM protein, 1 h at room temperature, uranyl formate stain; 2D class averages compared with projections of the hexamer model
[3] = target: murine norovirus (MNV) RNA-dependent RNA polymerase (RdRp), native (murine norovirus (MNV)); experiment: crystal structure; RdRp incubated with VPg at a molar ratio of 1:2 with UTP or GTP, oligo(A) or oligo(C), 2 mM MnCl2, 2 mM MgCl2; P21, six monomers in the asymmetric unit; 3.1 Å
[4] = target: murine norovirus (MNV) RNA-dependent RNA polymerase (RdRp), native (murine norovirus (MNV)); experiment: cross-linking; 0.001% glutaraldehyde, room temperature 6 min; 50 mM HEPES pH 7.4, 5 mM MgCl2, 5 mM DTT, 1 μM oligo(A)15, 2 μM RdRp, 6 μM VPg; SDS-PAGE and western blot with anti-RdRp or anti-VPg antisera
[5] = target: murine norovirus (MNV) RdRp D331A mutant (murine norovirus (MNV)); experiment: not stated; D331A and L354D RdRp by themselves, in the absence of VPg; told only in the discussion
[6] = target: murine norovirus (MNV) RdRp L354D mutant (murine norovirus (MNV)); experiment: as above
[7] = target: murine norovirus (MNV) RNA-dependent RNA polymerase (RdRp), native (murine norovirus (MNV)); experiment: SPR; Biacore2000; RdRp or mutant RdRp immobilised on a CM5 chip (amine coupling, sodium acetate pH 5.0); analyte in 20 mM Tris-HCl pH 8.0, 100 mM NaCl, 5 mM MgCl2; 1:1 Langmuir kinetics
[8] = target: murine norovirus (MNV) RdRp D331A mutant (murine norovirus (MNV)); experiment: as above
[9] = target: murine norovirus (MNV) RdRp L354D mutant (murine norovirus (MNV)); experiment: as above
[10] = target: murine norovirus (MNV) RNA-dependent RNA polymerase (RdRp), native (murine norovirus (MNV)); experiment: as above; remark: listed apart in the source

Substance “murine norovirus (MNV) RNA-dependent RNA polymerase (RdRp), native (enzyme)” has a pKd [1] of 8.66, a stoichiometry N [2] of 6 and a stoichiometry N [3] of 6. For the same substance, the stoichiometry N [4] was 2 and 3 and 6.

In the case of “murine norovirus (MNV) RdRp D331A mutant (enzyme)”, the stoichiometry N [5] was 6.

In the case of “murine norovirus (MNV) RdRp L354D mutant (enzyme)”, the stoichiometry N [6] was 6.

Work on “murine norovirus (MNV) VPg(1-73) (domain or fragment)” yielded a pKd [1] of 7.77.

In the case of “murine norovirus (MNV) VPg(1-124), full length (natural protein)”, the pKd [7] was 8.06, the pKd [8] was 7.64 and the pKd [9] was 6.68. It also gave a pKd [10] of 8.05.
